B1: Atg40^234–252 peptide [S. cerevisiae] / Atg8 (1-116) K26P [S. cerevisiae] (parent complex)
chain 1: TSTEFPNDYDFMEDILDET
chain 2: MKSTFKSEYPFEKRKAESERIADRFPNRIPVICEKAEKSDIPEIDKRKYLVPADLTVGQFVYVIRKRIMLPPEKAIFIFVNDTLPPTAALMSAIYQEHKDKDGFLYVTYSGENTFG

One experiment covers variants of B1. Put plainly: ITC.
One may read the Kd as a measure of binding affinity in units of concentration. Take chain 1 TSTEFPNDADFMEDILDET [chain 1 Y9A]: the Kd turned out to be 32.7 µM. Still for that read-out and setting: the value for chain 1 TSTEAPNDYDFMEDILDET [chain 1 F5A] was 4.31 µM.

In another experiment the parent is B1. Put plainly: ITC. This is another data set of the same source.
chain 2 MKSTFKSEYPFEKRKAESERIADRFPNRIPVICEKAEKSDIPEIDKRKYLVPADLTVGQFVYVIRKAIMLPPEKAIFIFVNDTLPPTAALMSAIYQEHKDKDGFLYVTYSGENTFG [chain 2 R67A]: the Kd turned out to be 24.8 µM.

The record behind these values is PMC7335187 (2020).
